Like-named read-outs stand apart in the source and are kept apart here.
What was measured:
[1] = molecular target: His-tagged human recombinant αVβ3 integrin (human) (UniProt P06756); assay: BLI
[2] = molecular target: His-tagged human recombinant αVβ3 integrin (human) (UniProt P06756); assay: BLI; remark: listed apart in the source

Sequence of His-tagged human recombinant αVβ3 integrin (human) (P06756 31-1048, chain 1 of 2): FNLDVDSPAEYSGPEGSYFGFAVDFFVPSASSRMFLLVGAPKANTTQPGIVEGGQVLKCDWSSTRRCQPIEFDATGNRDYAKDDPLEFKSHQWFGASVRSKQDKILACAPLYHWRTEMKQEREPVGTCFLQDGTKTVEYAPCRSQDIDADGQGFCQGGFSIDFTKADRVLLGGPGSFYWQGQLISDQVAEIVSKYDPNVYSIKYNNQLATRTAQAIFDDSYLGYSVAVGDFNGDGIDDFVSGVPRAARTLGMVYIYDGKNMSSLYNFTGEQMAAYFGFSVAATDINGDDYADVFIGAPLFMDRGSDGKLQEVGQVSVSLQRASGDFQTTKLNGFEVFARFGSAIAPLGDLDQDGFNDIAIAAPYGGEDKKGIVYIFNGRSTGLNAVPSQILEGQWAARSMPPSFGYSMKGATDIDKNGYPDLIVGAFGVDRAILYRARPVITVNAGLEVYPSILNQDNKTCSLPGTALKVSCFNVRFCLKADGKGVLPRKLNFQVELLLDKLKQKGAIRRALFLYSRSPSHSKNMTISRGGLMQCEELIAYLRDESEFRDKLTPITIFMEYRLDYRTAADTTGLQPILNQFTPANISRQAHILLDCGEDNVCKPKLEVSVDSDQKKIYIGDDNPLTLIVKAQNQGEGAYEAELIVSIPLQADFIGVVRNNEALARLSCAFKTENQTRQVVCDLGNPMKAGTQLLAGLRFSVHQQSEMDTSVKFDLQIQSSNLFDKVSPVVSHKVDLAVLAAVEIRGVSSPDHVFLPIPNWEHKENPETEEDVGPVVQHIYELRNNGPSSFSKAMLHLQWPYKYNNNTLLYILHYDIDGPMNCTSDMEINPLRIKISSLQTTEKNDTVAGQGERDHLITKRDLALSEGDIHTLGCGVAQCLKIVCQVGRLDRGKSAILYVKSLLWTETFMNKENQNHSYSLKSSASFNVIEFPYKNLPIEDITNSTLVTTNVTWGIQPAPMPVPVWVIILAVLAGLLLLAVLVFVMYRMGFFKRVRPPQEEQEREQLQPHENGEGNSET
Sequence of His-tagged human recombinant αVβ3 integrin (human) (P05106 27-718, chain 2 of 2, further chain): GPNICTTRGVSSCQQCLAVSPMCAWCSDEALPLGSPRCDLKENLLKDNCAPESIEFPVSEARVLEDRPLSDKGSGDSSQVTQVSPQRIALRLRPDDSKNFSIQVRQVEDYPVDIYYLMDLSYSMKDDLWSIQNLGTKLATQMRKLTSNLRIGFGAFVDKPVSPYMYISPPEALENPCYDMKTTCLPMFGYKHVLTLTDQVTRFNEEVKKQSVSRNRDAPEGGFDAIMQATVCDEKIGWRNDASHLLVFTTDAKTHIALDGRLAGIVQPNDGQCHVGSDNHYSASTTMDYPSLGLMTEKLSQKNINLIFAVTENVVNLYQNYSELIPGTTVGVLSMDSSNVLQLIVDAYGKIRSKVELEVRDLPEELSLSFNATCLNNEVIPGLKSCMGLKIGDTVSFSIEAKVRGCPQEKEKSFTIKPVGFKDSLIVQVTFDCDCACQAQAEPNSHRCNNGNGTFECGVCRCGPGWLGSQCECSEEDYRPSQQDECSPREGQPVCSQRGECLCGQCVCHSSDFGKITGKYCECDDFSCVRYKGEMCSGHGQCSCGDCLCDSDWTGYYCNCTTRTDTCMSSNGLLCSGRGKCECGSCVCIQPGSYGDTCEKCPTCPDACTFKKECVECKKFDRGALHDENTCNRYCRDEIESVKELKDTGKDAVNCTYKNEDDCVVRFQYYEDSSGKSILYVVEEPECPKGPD
Sequence of human vitronectin (P04004 20-478): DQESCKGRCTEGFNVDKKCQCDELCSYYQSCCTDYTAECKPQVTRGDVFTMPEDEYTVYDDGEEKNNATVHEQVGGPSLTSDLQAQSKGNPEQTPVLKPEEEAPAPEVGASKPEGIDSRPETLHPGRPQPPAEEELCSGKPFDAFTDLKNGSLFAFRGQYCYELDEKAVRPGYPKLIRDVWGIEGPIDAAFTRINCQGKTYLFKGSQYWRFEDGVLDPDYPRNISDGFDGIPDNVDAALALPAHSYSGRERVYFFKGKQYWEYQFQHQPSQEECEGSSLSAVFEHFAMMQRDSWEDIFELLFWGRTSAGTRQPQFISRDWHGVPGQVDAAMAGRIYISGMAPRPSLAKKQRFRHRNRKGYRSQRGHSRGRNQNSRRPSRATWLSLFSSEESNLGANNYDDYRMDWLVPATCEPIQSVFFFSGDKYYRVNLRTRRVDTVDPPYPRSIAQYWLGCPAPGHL

Kd [1]	Kd [2]	Substance
54 nM	–	human plasma fibronectin (ligand)
< 0.001 nM	303 nM	human vitronectin (from UniProt P04004 20-478) (ligand)
8.15 nM	–	native human fibrinogen (from UniProt P02671 36-866; P02675 45-491; P02679 27-453) (ligand)

From doi:10.1101/200493
